Experimental data reported in patent US10246503B2, “Method of improving the pharmacokinetic profile of a therapeutic polypeptide and the use thereof” (BEIJING ANXINHUAIDE BIOTECH. CO., LTD, priority 2012, dated 2019).
Where two headings read alike, the source gives them in different places.

What was measured:
[1] = in monkeys, literature [6]; cited from earlier work
TNF-alpha = experiment: cell-based or functional assay
[2] = pharmacokinetics in SD rats, sandwich ELISA (Example 15); type: in vivo, SD (Sprague-Dawley) rats; details: SD rats, intraperitoneal, 5 nmol/kg
Experimental: To evaluate the pharmacokinetics profiles for the GLP-1 containing fusion proteins generated using the method of the invention, we purified the recombinant fusion proteins of GLP-1-Fn8-COL18NC1, GLP1(A8G/G22E/R36G)-Fn8-p246-COL18NC1 and GLP1(A8G/G22E/R36G)-Fn8-p285-COL18NC1 in PBS buffer, pH 7.2. These fusion proteins were administered into SD (Sprague-Dawley) rats by intraperitoneal injections at the dose of 5 nmol/kg for animals, respectively. Blood samples were taken at various time points after injections such as 0-min, 30-min, 1-hour, 2-hour, 4-hour, 6-hour, 8-hour, 24-hour, 48-hour, 3-day, 4-day, 5-day, 6-day and 7-day. The serum samples were centrifuged and kept at −80° C. freezer.
The GLP-1 concentrations within the samples were examined by use of the sandwich ELISA method. The rabbit polyclonal antibody against human Fibronectin at the concentration of 3 ug/ml (Ab299, Abcam company) was coated on ELISA plate for 1 hour at room temperature. Then the plate was washed by PBST buffer three times and the wells were blocked by PBS with 10% FBS for 1 hour at room temperature. The plate was washed three times before the serum samples containing GLP-1 fusion proteins were added. The serum samples could be diluted to 20-10000 folds before use. The ELISA plate was incubated with the serum samples at room temperature for 1 hour and then washed by PBST buffer five times. Then mouse monoclonal against human GLP-1 peptide antibody (sc57510, Santa Cruz Biotechnology) at the concentration of 1 ug/ml in PBST buffer was added to the wells. The plate was washed extensively after incubation of 1 hour at room temperature. The secondary antibody, […] HRP conjugated antibody (Beijing ZSGB-Bio company, ZB 5301), was added into the wells and the color was developed using TMB (3,3′,5,5′-tetramethylbenzidine, BD Biosciences, Cat 555214). The plate reader (Bio-Rad microplate reader Model 680) was utilized to obtain the OD450 readings. This method has been calibrated using purified proteins first.
The pharmacokinetics parameters were obtained by using the WinNonlin software (Table 5).

[3] = analytical gel filtration (Superdex200), apparent molecular weight; type: physicochemical
From the text: In the fusion protein of GLP-1(A8G/G22E)-Fn8-COL18NC1 described in example 4, the flexible unstructured linker between Fn8 and COL18NC1 contains six residues (GGGSGG; SEQ ID NO:89). To generate the flexible un-structured linkers with different lengths, we have synthesized the genes GLP-1(A8G/G22E/R36S)-Fn8-COL18NC1-20, GLP-1(A8G/G22E/R36S)-Fn8-COL18NC1-30, GLP-1(A8G/G22E/R36S)-Fn8-COL18NC1-54 and GLP-1(A8G/G22E/R36S)-Fn8-COL18NC1-60. In these genes, the length of the flexible unstructured polypeptide linker between Fn8 and COL18NC1 contained 20, 30, 54 and 60 residues, respectively. The protein sequences of GLP-1(A8G/G22E/R36S)-Fn8-COL18NC1-20, GLP-1(A8G/G22E/R36S)-Fn8-COL18NC1-30, GLP-1(A8G/G22E/R36S)-Fn8-COL18NC1-54 and GLP-1(A8G/G22E/R36S)-Fn8-COL18NC1-60 are listed as SEQ ID NO:8-11. The synthetic genes of GLP-1(A8G/G22E/R36S)-Fn8-COL18NC1-20, GLP-1(A8G/G22E/R36S)-Fn8-COL18NC1-30, GLP-1(A8G/G22E/R36S)-Fn8-COL18NC1-54 and GLP-1(A8G/G22E/R36S)-Fn8-COL18NC1-60 were grafted to the pET29b by NdeI and XhoI for protein expressions. The expression and purification of these fusion proteins were carried out using similar protocols described in example 3. To estimate the hydrodynamic radius and/or the Rg of the fusion proteins, the purified proteins were loaded on an analytical gel filtration column Superdex200 (GE Healthcare).
Moreover, the flexible unstructured linker between the therapeutic polypeptide and the scaffold protein may adjust the hydrodynamic radius and/or the Rg of the fusion molecule in a tunable manner.
The apparent molecular weights of the fusion proteins were estimated by use of an analytical gel filtration column Superdex-200 (GE Healthcare) mounted on the AKTA FPLC system (GE Healthcare). The purified fusion proteins GLP-1-Fn8, GLP-1-Fn8-COL18NC1, GLP-1(A8G/G22E/R36G)-Fn8-p246-COL18NC1 were loaded on the Superdex200 column. GLP-1-Fn8 is a fusion protein of GLP-1 and Fn8 and contains the first 144 amino acid residues of the fusion protein GLP-1-Fn8-COL18NC1 (SEQ ID NO:2). […] The genuine molecular weights for the fusion proteins GLP-1-Fn8 monomer, GLP-1-Fn8-COL18NC1 trimer, and GLP-1(A8G/G22E/R36G)-Fn8-p246-COL18NC1 trimer were ˜15 Kd, 65 Kd and 123Kd, respectively.

GLP-1-Fc fusion protein: GLP-1-Fc fusion protein of literature reference [6] (LY2189265)
half life [1]: ~51 h

TNFR2-Fc fusion protein (R&D Systems)
ED50, block of the apoptosis of L-929 mouse fibroblast cells induced by TNF-alpha (0.25 ng/mL) in the presence of actinomycin D (TNF-alpha): 5 ng/mL

B1: GLP-1-Fn8-COL18NC1: fusion of GLP-1, Fn8 and COL18NC1; SEQ ID NO: 2; abbreviated NC1 in Table 5 (protein)
chain: HAEGTFTSDVSSYLEGQAAKEFIAWLVKGRGGGGSGGGGSAVPPPTDLRFTNIGPDTMRVTWAPPPSIDLTNFLVRYSPVKNEEDVAELSISPSDNAVVLTNLLPGTEYVVSVSSVYEQHESTPLRGRQKTGGGGSGGGASSGVRLWATRQAMLGQVHEVPEGWLIFVAEQEELYVRVQNGFRKVQLEARTPLPRG
half life [2]: 5.3 h
apparent molecular weight [3]: ~100 Kd
